The target in assay [1] is CTLA-4 (BMS, Orencia) (human) (UniProt P16410). Nature of the assay: cell-based or functional assay.
Assay [2] concerns the target CD137 chimera 1550 (1407): human CD137 with mouse domains 1, 2A and 2B (aa 24-86), on FreeStyle 293-F cells (human; mouse) (UniProt P20334). Nature of the assay: flow cytometry, 293-F transfectants. In general terms: A flow cytometer gives signals particle by particle.

Sequence of UniProt P20334 (P20334 other isoform, or with tags, fused parts or gaps mutant limits assumed): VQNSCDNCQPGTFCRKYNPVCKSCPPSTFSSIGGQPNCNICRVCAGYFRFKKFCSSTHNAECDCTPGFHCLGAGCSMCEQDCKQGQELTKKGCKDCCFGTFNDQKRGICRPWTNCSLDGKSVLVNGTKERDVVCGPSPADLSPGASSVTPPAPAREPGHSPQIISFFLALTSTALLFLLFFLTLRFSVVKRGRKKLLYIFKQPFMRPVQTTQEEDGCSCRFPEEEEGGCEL
Sequence of CTLA-4 (BMS, Orencia) (human) (P16410 38-152 limits assumed): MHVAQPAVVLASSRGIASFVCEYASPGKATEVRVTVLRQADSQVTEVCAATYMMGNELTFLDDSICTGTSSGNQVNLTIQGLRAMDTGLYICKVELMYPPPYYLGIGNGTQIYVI

B1: 1756/1757 (isotype control antibody fused to the 1040 CTLA4 binding region) (protein, part only; not given: Isotype control antibody chains, part only)
chain: APLKIQAYFNETADLPCQFANSQNLSLSELVVFWQDQENLVLNEVYLGKERFDSVDSKYMGRTSFDSDSWTLRLHNLQIKDKGRYQCIIHHKKPTGMINIHQMNSELSVLA
In assay [1], B1 had a Mean IL-2 level (pg/ml) induced at 1.5 nM (control) of 1050 pg/mL.

B2: anti-CD137 antibody 1204/1205 (antibody, IgG1, V domains shown)
VH: EVQLLESGGGLVQPGGSLRLSCAASGFTFSSYYMGWVRQAPGKGLEWVSGIGSYYGYTGYADSVKGRFTISRDNSKNTLYLQMNSLRAEDTAVYYCARAYYDYNYYYAYFDYWGQGTLVTVSS
VL: DIQMTQSPSSLSASVGDRVTITCRASQSISSYLNWYQQKPGKAPKLLIYAASSLQSGVPSRFSGSGSGTDFTLTISSLQPEDFATYYCQQSVPHYPFTFGQGTKLEIK
As for B2, in assay [2], the relative binding (MFI sample/isotype control, normalised to full-length human CD137) came to 0.07.
